Patent US20190225652A1, “GENERATION OF PEPTIDES” (Hexima Limited, priority 2015, published 2019)

How the values were obtained:
rOaAEP1b [1] = assay: Inhibition assay: rOaAEP1b activity against wt IQF peptide; type: biochemical, Oldenlandia affinis; details: 40 minutes preincubation, rOaAEP1b 4.4 μg mL^−1, IQF peptide 11 μM, 90 minutes
Procedure: FIG. 16 is a graphical representation of rOaAEP1b activity against the IQF peptide Abz-STRNGLPS-Y(3NO2) [SEQ ID NO:21] in the presence of protease inhibitors. rOaAEP1b (4.4 μg mL^−1 total protein) was allowed to cleave the IQF peptide (11 μM) for 90 minutes. Enzyme activity against the IQF peptide in the presence of either the Ac-YVAD-CHO or Ac-STRN-CHO inhibitors is reported relative to a no inhibitor control at the 90 minutes time point.
To assay activity of recombinant AEPs (rOaAEP1b, rOaAEP3, rOaAEP4 or rOaAEP5) against both internally-quenched and other fluorescent peptides, substrate and enzyme were diluted as appropriate in activity buffer (50 mM sodium acetate, 50 mM NaCl, 1 mM EDTA, 0.5 μM TCEP, pH 5). […] The change in fluorescence intensity over time was monitored on a SpectraMax M2 (Molecular Devices) using excitation/emission wavelengths of 320/420 nm (IQF peptides) or 360/460 nm (other fluorescent peptides).
To investigate the impact of inhibitors on enzyme activity against the wild type IQF peptide, Abz-STRNGLPS-Y(3NO2), rOaAEP1b (4.4 μg mL^−1 total protein) was incubated with Ac-YVAD-CHO (500 μM) or Ac-STRN-CHO (409 μM) for 40 minutes prior to addition to the substrate (11 μM). Enzyme activity against the wt IQF peptide was then assessed as described above.

[2] = system: rOaAEP1b, rOaAEP3, rOaAEP4 and rOaAEP5; assay: Cyclization assay with rOaAEP1b, rOaAEP3, rOaAEP4 and rOaAEP5 (MALDI/ESI MS); type: biochemical, Oldenlandia affinis
Procedure: Linear target peptides (280 μM, unless otherwise indicated) were incubated with rOaAEP1b, rOaAEP3, rOaAEP4 or rOaAEP5 (total protein concentration as indicated in the description of figures) in activity buffer (50 mM sodium acetate, 50 mM NaCl, 1 mM ethylenediaminetetraacetic acid [EDTA], 0.5 μM Tris(2-carboxyethyl)phosphine hydrochloride [TCEP], pH 5). The reaction was allowed to proceed for up to 22 hours at room temperature and was analysed by matrix-assisted laser desorption/ionization mass spectrometry (MALDI MS), high performance liquid chromatography (HPLC) or nuclear magnetic resonance (NMR) as appropriate.
(§1) Cyclization or inter-molecular ligation of linear target peptides was monitored by MALDI or ESI MS. In both cases, the reaction mixture (5-50 μL) was de-salted using C18 zip tips (Millipore) and eluted in 4 μL 50-75% v/v acetonitrile, 0.1% v/v trifluoroacetic acid (TFA).
(§2) For MALDI MS, a saturated MALDI matrix solution (α-cyano-4-hyroxycinnamic acid, CHCA, Bruker) prepared in 95% v/v acetonitrile, 0.1% v/v TFA was diluted 1:22 such that the final matrix solution comprised 90% v/v acetonitrile, 0.1% v/v TFA and 1 mM NH4H2PO4. Eluted samples were mixed 1:4 with the MALDI matrix, spotted onto a MALDI plate and analyzed by an Ultraflex III TOF/TOF (Bruker) in positive reflector mode. Data were analyzed using the flexAnalysis program (Bruker).
(§3) For ESI MS, 96 μl of 75% v/v acetonitrile, 01% v/v TFA was added to the de-salted sample. The sample was then injected into a MicroTOF Q (Bruker) and data was collected in positive ionisation mode. The mass of ligated or cyclized product was determined by charge deconvolution using the Compass DataAnalysis program (Bruker).
The ability of activated AEPs (rOaAEP1b, rOaAEP3, rOaAEP4 and rOaAEP5) to cyclize peptide substrates structurally unrelated to cyclotides was tested in the cyclization assay described in the Materials and Methods. The anti-malarial peptide R1 (Harris et al. (2009) J Biol Chem 284(14):9361-9371; Harris et al. (2005) Infect Immun 73(10):6981-6989); Bac2A, a linear derivative of the bovine peptide bactenecin (Wu and Hancock (1999) Antimicrob Agents Ch 43:1274-1276); and the anti-fungal peptide EcAMP1 (Nolde et al. (2011) J Biol Chem 286(28):25145-25153) were produced with additional AEP recognition residues and used as the substrates.
To investigate the sequence requirements for in vitro cyclization, R1 was used as a model peptide. The recognition residues added to this model peptide were sequentially trimmed to determine the minimal requirements for AEP-mediated cyclization. The N- and C-terminal recognition residues were also substituted with alternate amino acids to determine if particular classes of residues were preferred for cyclization by these recombinant AEPs. The ability of activated AEPs (rOaAEP1b, rOaAEP3, rOaAEP4 and rOaAEP5) to cyclize the R1 peptide with varied flanking sequences was then tested in the cyclization assay described in the Materials and Methods (FIG. 10; Table 3).

[3] = system: rOaAEP1b, rOaAEP3, rOaAEP4 and rOaAEP5; assay: Intermolecular ligation assay with recombinant AEPs; type: biochemical, Oldenlandia affinis; details: target 140 μM
Procedure: Target peptides (140 μM) were incubated with a ligation partner peptide (700 μM) and a recombinant AEP (rOaAEP1b, rOaAEP3, rOaAEP4 or rOaAEP5 at 19.7 μg mL^−1 total protein) in activity buffer (50 mM sodium acetate, 50 mM NaCl, 1 mM EDTA, 0.5 μM TCEP, pH 5). The reaction was allowed to proceed for up to 22 hours at room temperature and was analysed by MALDI MS or electrospray ionisation (ESI) mass spectrometry as appropriate.
as §1, §2, §3
To investigate the ability of recombinantly produced AEPs to perform inter-molecular ligation (as well as the intra-molecular ligation required to produce backbone-cyclized peptides), target peptides were incubated with ligation partner peptides as well as active enzyme (FIG. 11). The appearance of new linear peptides were tracked. […]

rOaAEP1b [4] = assay: Cyclization assay with rOaAEP1b (MALDI MS); type: biochemical, Oldenlandia affinis; details: MALDI MS
rOaAEP1b [5] = assay: Kinetics of rOaAEP1b-mediated cyclisation of wt kB1 precursor (RP-HPLC, Michaelis-Menten); type: biochemical, Oldenlandia affinis; details: substrate 75-250 μM, room temperature, 5 min, enzyme 19.7 μg ml^−1 total protein, ±s.e.m.
Procedure: FIG. 7 is a graphical representation showing the kinetics of rOaAEP1b-mediated cyclisation. Varying concentrations of substrate (kB1wt precursor) were incubated with enzyme (19.7 μg mL^−1 total protein) for 5 min. The amount of product formed was inferred by monitoring depletion of the precursor by RP-HPLC. […] The kinetic parameters derived from this plot are listed (±SEM).
To determine the kinetics of rOaAEP1b activity against the wt kB1 precursor (FIG. 1; SEQ ID NO: 11), the substrate was assayed at room temperature at a range of concentrations between 75 and 250 μM in a total volume of 20-160 μl of activity buffer. The total protein concentration of the enzyme preparation added to the kinetic assays was 19.7 μg ml^−1. The reaction was quenched after 5 min with 0.1% TFA and the volume adjusted to 800 μl. A volume of 700 μl was loaded onto a reversed-phase C18 analytical column (Agilent Eclipse C18, 5 μm, 4.6×150 mm) and peptides were separated by HPLC (19 min linear gradient of 12-60% acetonitrile, 0.1% TFA at 1 ml min^−1). The identity of eluted peaks was confirmed using MALDI MS. The area under the curve corresponding to the precursor peptide was quantitated by comparison to a standard curve and initial velocities were calculated by converting this to μmoles product formed. […]

[6] = biological target: T1, R1 peptide derivative GLPVFAEFLPLFSKFGSRMHILKSTRNGLP
T1 chain: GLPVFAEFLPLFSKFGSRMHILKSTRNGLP

[7] = biological target: T2, R1 peptide derivative GLVFAEFLPLFSKFGSRMHILKNG
T2 chain: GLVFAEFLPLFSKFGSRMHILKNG

[8] = biological target: T3, R1 peptide derivative GLVFAEFLPLFSKFGSRMHILKNGL
T3 chain: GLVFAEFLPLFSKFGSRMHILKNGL

[9] = biological target: T4, R1 peptide derivative KLVFAEFLPLFSKFGSRMHILKNGL
T4 chain: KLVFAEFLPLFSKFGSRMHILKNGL

[10] = biological target: T5, R1 peptide derivative QLVFAEFLPLFSKFGSRMHILKNGL
T5 chain: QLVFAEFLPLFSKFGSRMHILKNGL

[11] = biological target: T6, R1 peptide derivative VFAEFLPLFSKFGSRMHILKNGL
T6 chain: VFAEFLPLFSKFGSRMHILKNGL

[12] = biological target: T7, synthetic linear kalata B1 precursor carrying the native C-terminal pro-hepta-peptide GLPSLAA (wt kB1 precursor)
T7 chain: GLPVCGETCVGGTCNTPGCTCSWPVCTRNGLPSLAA

Ac-STRN-aldehyde
efficacy of inhibitor against rOaAEP1b (rOaAEP1b [1]; inhibitor 409 μM): limited efficacy

Ac-YVAD-CHO
efficacy of inhibitor against rOaAEP1b (rOaAEP1b [1]; inhibitor 500 μM): limited efficacy

GLP-NaD1-TRNGLP: plant defensin NaD1 with AEP recognition residues at N- and C-termini, expressed in Pichia pastoris (GLPRECKTESNTFPGICITKPPCRKACISEKFTDGHCSKILRRCLCTKPCTRNGLP; Target peptides)
AEP-mediated backbone cyclization of modified NaD1 ([2]; 140 μM, no ligation partner, ESI-MS): no evidence of backbone-cyclization | inter-molecular ligation, C-terminal labelling ([3]; ligation partner GLPVSGE or PLPVSGE 700 μM, enzymes 19.7 μg mL^−1, 6-22 h, ESI-MS): new, linear, peptides were detected

GLVFAEFLPLFSKFGSRMHILKGHV (R1) [SEQ ID NO:61, R1 peptide derivative]
cyclization of linear precursor peptide by recombinant AEPs ([2]; peptides with added AEP recognition residues, 280 μM, enzymes 19.7 μg mL^−1 total protein, MS): not itself an AEP substrate | inter-molecular ligation, N-terminal labelling ([3]; ligation partner biotin-TRNGL 700 μM, enzymes 19.7 μg mL^−1, 6 h, MALDI-MS): created a new linear peptide that incorporated an N-terminal biotin

wt kB1 precursor: synthetic linear kalata B1 precursor carrying the native C-terminal pro-hepta-peptide (GLPSLAA) (GLPVCGETCVGGTCNTPGCTCSWPVCTRNGLPSLAA; kB1wt)
processing/cyclization by rOaAEP1b (rOaAEP1b [4]): consistent with the expected mass of mature, cyclic kB1 | kcat (rOaAEP1b [5]; conservative estimate (32 kDa, total protein taken as active enzyme)): 0.53 (±0.1) s^−1 | Km (rOaAEP1b [5]): 212 µM

B1: recombinant Oldenlandia affinis asparaginyl endopeptidase OaAEP1b, activated (rOaAEP1b) (protein)
chain: MVRYLAGAVLLLVVLSVAAAVSGARDGDYLHLPSEVSRFFRPQETNDDHGEDSVGTRWAVLIAGSKGYANYRHQAGVCHAYQILKRGGLKDENIVVFMYDDIAYNESNPRPGVIINSPHGSDVYAGVPKDYTGEEVNAKNFLAAILGNKSAITGGSGKVVDSGPNDHIFIYYTDHGAAGVIGMPSKPYLYADELNDALKKKHASGTYKSLVFYLEACESGSMFEGILPEDLNIYALTSTNTTESSWCYYCPAQENPPPPEYNVCLGDLFSVAWLEDSDVQNSWYETLNQQYHHVDKRISHASHATQYGNLKLGEEGLFVYMGSNPANDNYTSLDGNALTPSSIVVNQRDADLLHLWEKFRKAPEGSARKEVAQTQIFKAMSHRVHIDSSIKLIGKLLFGIEKCTEILNAVRPAGQPLVDDWACLRSLVGTFETHCGSLSEYGMRHTRTIANICNAGISEEQMAEAASQACASIP
Cyclic product (%) [6]: 78.8% | Linear precursor (%) [6]: 21.2% | Linear precursor (%) [7]: 100% | Cyclic product (%) [8]: 92.9% | Linear precursor (%) [8]: 7.1% | Cyclic product (%) [9]: 82.2% | Linear precursor (%) [9]: 17.8% | Cyclic product (%) [10]: 93.1% | Linear precursor (%) [10]: 6.9% | Cyclic product (%) [11]: 49.6% | Linear precursor (%) [11]: 27.7% | Linear product (%) [11]: 27.7% | Km [12]: 212 (±76) µM for Km | kcat [12]: 0.53 (±0.1) s^-1 for kcat | kcat/Km [12]: 2,500 M^-1 s^-1 for kcat/Km
